Assay results reported in publication PMC4759255.

molecular target: T1, His-LexA (Synechocystis sp. PCC 6803) (UniProt P73722); assay: EMSA; conditions: Roche DIG gel shift kit 2nd generation buffer per manufacturer plus 1 mM DTT, 25 min at room temperature, 6% polyacrylamide gel; 5x and 50x unlabeled …
T1 sequence: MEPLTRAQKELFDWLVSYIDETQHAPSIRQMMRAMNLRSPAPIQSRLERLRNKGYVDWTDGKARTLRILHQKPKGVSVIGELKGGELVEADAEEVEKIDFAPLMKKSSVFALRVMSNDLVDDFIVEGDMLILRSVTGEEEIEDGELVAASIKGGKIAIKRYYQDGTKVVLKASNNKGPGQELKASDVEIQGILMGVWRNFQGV

binding, binds:
TGGGCAGGGTAAATTGATTTTTTCTTGTTGTTTGATCCCATTTTCCAGTCTTTTTGACTTCCATTCAGTCAGGATAATTTTTGCAGTTTTTTTATGGAGTTTTGATAACATTGAGCTTTGCCCCCGGCGATCGCCTAGGGATAAACAATAAACGTGTGAACTAATATGCCTGGATTTATCCCTGGATTGACATTGTTTTTGCC (double strand) [slr1670 promoter]
TTGTTCAAGATCATTAGGCTTTAGTATATTTATAGTGATCAAAAAAGCAAGTGGTGAAAGAAACACCCAGACAAATATTCACAAAACTTAATTTTACTTAACAAATCATAATCCAGTTACGCAGTTACCACCTACACGGGAACCAGAACGCACGATTCCCAAGCCGGAAGAAATTACTAAGCATGGCTCATAGGATGTTCTAC (double strand) [pilA7 promoter]
GTGACAACTAACATCACCTAGATGATAAGTTAATTTACAACAAATGATTGTTAGCCAGCTCACCAAAACCTGTGACAATAAACACCAAAACAGTTTACTTGTTTCTATAATTTTCCCTGAAACTGGGGTTTGAGAGGGTCTAGGGGAGAATTTAGTTATTGTTTGGATATATTGTCATGGCACCACAAAAGCCGTCAACAAA (double strand) [pilA9 promoter]
TGGGATCAAACAACAAGAAAAAATCAATTTACCCTGCCCATGGCAATAGTTTTAAGGTTAACAAAAAAAATAGAATTTACCGCAATCGACGGGTAAATTTCCAGAGGATACCCCCAACTCCAGAAGCAGAAATCTTGCCAGAAAAGCTTTTTCTGTTACTATACTTAACAAGTAACTACTTTTTCC (double strand) [ggpS promoter]
